Article PMC3904167, “Replication interference between human papillomavirus types 16 and 18 mediated by heterologous E1 helicases” (Virology Journal, 2014)

Biological target: T1, Purified FLAG-tagged HPV18 E1 (human papillomavirus type 18, UniProt P06789 1-657)
T1 construct: E1 helicase of human papillomavirus type 18; also called F18E1; source: Sf9 cells, recombinant baculovirus (pFastBac1), purified; not shown: FLAG, N-terminal, kept
T1 sequence: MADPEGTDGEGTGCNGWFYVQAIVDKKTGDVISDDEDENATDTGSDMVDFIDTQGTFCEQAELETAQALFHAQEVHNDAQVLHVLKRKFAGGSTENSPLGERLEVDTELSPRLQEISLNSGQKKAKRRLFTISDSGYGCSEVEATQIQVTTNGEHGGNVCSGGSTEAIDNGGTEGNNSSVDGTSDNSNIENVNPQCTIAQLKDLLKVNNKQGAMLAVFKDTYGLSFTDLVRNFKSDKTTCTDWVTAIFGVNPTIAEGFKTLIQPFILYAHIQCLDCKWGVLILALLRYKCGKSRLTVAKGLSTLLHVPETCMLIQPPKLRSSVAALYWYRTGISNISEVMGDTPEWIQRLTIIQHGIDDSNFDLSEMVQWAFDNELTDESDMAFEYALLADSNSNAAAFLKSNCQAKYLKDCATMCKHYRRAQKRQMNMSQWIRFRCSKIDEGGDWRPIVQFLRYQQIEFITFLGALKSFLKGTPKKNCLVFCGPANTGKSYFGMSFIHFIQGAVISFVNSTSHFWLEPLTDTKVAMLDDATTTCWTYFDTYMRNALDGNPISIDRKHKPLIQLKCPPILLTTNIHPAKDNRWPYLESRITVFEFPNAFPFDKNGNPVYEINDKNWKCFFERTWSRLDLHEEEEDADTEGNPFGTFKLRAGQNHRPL
Test: co-IP; 1 ug purified H16E1 and 4 ug purified F18E1 in 200 ul binding buffer (20 mM Tris-HCl pH 8.0, 150 mM NaCl, 2 mM MgCl2, 0.01% NP-40); IP with anti-FLAG antibody and protein G magnetic beads, 1 h at 4°C; blot with anti-6xHis antibody
Conditions: both partners purified

B1: Purified 6xHis-tagged HPV16 E1 (enzyme)
chain: MADPAGTNGEEGTGCNGWFYVEAVVEKKTGDAISDDENENDSDTGEDLVDFIVNDNDYLTQAETETAHALFTAQEAKQHRDAVQVLKRKYLVSPLSDISGCVDNNISPRLKAICIEKQSRAAKRRLFESEDSGYGNTEVETQQMLQVEGRHETETPCSQYSGGSGGGCSQYSSGSGGEGVSERHTICQTPLTNILNVLKTSNAKAAMLAKFKELYGVSFSELVRPFKSNKSTCCDWCIAAFGLTPSIADSIKTLLQQYCLYLHIQSLACSWGMVVLLLVRYKCGKNRETIEKLLSKLLCVSPMCMMIEPPKLRSTAAALYWYKTGISNISEVYGDTPEWIQRQTVLQHSFNDCTFELSQMVQWAYDNDIVDDSEIAYKYAQLADTNSNASAFLKSNSQAKIVKDCATMCRHYKRAEKKQMSMSQWIKYRCDRVDDGGDWKQIVMFLRYQGVEFMSFLTALKRFLQGIPKKNCILLYGAANTGKSLFGMSLMKFLQGSVICFVNSKSHFWLQPLADAKIGMLDDATVPCWNYIDDNLRNALDGNLVSMDVKHRPLVQLKCPPLLITSNINAGTDSRWPYLHNRLVVFTFPNEFPFDENGNPVYELNDKNWKSFFSRTWSRLSLHEDEDKENDGDSLPTFKCVSGQNTNTL
notes: E1 helicase of human papillomavirus type 16; H16E1 gene cloned into pET-30; The pET-30 vector may add further vector-derived residues; also called H16E1; source: Escherichia coli BL21(DE3) pLysS (pET-30), purified
  binding result: binds
